{
  "source": "patent US20250304973",
  "origin": "cited, not measured here",
  "target": "alpha-thrombin (native) (Homo sapiens) (UniProt P00734+P00734)",
  "details": "CITED; linker not given",
  "data": [
    {"substance": "HD1-22 bivalent (HD1 linked to HD22)", "values": [
      {"measurement": "Kd", "result": 650, "unit": "pM"}
    ]}
  ]
}
